# Laboratory results published in the supplement of paper PMC9732359.
# ± gives the uncertainty stated by the source.
# Test: protein stability index of a GFP-peptide fusion (yeast GPS) (PSI 1-4); higher = more stable; sorted into four equal gates, so the index is relative within each strain
# Conditions: pdr5∆
# How it was run: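 Each library plasmid carries Cherry plus GFP with a tiled 17-residue yeast protein peptide fused downstream, and the pooled library was carried in yeast. Mid-log cultures in leucine-free medium were sorted into four equal gates by GFP/Cherry ratio. Reads from Illumina sequencing of PCR-amplified plasmids from each gate were assigned to strains by barcodes. Per peptide, the protein stability index was computed as the summed products of gate read frequency and gate number.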
row,Sequence,protein stability index
1,QEKQEQQEQDKKKKSNH [PRE6],1.81 ± 0.044
2,QEPSASQVKDSVTETES [SRP68],2.93 ± 0.18
3,QESLVKLFTTNELMRWP [RPN5],3.72 ± 0.3
4,QEVTNEAPFLTSGTSSE [GAL11],3.35 ± 0.08
5,QFKSKEVEKAHPIRLYT [PRP8],2.88 ± 0.056
6,QFSYLSSTLGIDLEDIK [PCI8],2.23 ± 0.076
7,QFYVKRWKRFTIGAIFL [CDC53],2.94 ± 0.093
8,QGLNILEWLENPSNTPD [FAS1],3.06 ± 0.086
9,QGNYPTTSYIKEQENIT [DPB4],3.1 ± 0.06
10,QGPIVADKNCAKLHRIS [PUP1],2.94 ± 0.088
11,QIDHFKSMLSKPETLSI [SWI3],2.44 ± 0.074
12,QIIRLFYSKNRLLITGT [ISW2],1.56 ± 0.14
13,QIIRRVKEMEPKQSDEY [SIR3],3.18 ± 0.11
14,QIPQQLYQSLTPQQLQM [SNF5],2.7 ± 0.038
15,QIQQQQQKQQQQQQQHQ [SNF5],2.97 ± 0.14
16,QKKIQINKEMGELNSKL [SMC3],3.34 ± 0.21
17,QKRLEAGALNLASPEVK [DIS3],2.64 ± 0.18
18,QKTQELNAKYQSLGLDD [ISW2],3.26 ± 0.048
19,QKTRVKLLFDHDELDMN [ESC2],3.36 ± 0.12
20,QKTVNLKNIMKVSDPYV [RPN4],2 ± 0.11
21,QLDSKLMVFNDDTKNQD [YGR119C/NUP57],2.75 ± 0.054
22,QLFHSMSIVFGDKFSED [UBP6],1.34 ± 0.06
23,QLIKQSIKNNVAMCFVI [SNU114],1.69 ± 0.14
24,QLLEKAPIPIREDIDDP [BRR2],2.55 ± 0.066
25,QLNEERSRYRREIDALK [YIL149C/MLP2],3.25 ± 0.065
26,QLNGNETFSTSAHQSPI [SNF2],2.99 ± 0.075

row,Sequence,protein stability index
1,QLQGPQWMNEMVERWAN [SOH1],3.18 ± 0.091
2,QLSNGIVVATEHNPSAH [COR1],3.08 ± 0.1
3,QLTPQQQQLVNQMKVAP [GAL11],2.98 ± 0.058
4,QLVPIRLEFDQDRDRFF [SNF5],2.98 ± 0.16
5,QLWLNSSGDFDDNNNNN [GRR1],3.16 ± 0.07
6,QLYFQKNGAQDLVLQIL [RRI2],2.81 ± 0.12
7,QMAVHIATDGGRICRPL [RET1],3.04 ± 0.085
8,QNAKLLANLIRDALRNI [RRP6],2.18 ± 0.062
9,QNFENDFSLRYISNLLY [REC8],2.29 ± 0.076
10,QNNLPPNFFLTLISENW [BRR2],3.13 ± 0.069
11,QNRSLQEHNIQDSNVMP [SNF2],3.08 ± 0.053
12,QNSKFLKVNVTLDNPLL [YJL039C/NUP192],2.57 ± 0.083
13,QPEVAVKAAINFSNVTD [YIL149C/MLP2],2.44 ± 0.055
14,QPKLNPMASSSSFGSES [SWI1],3.28 ± 0.069
15,QPKRNLSRYVKWPEYVR [RPL8A],2.98 ± 0.046
16,QPNEISFKYLSNNDEDD [RGR1],2.29 ± 0.041
17,QPQHPHYVSTSKISQMA [YLR018C/POM34],2.17 ± 0.04
18,QQAQSFVGKKNTIGSVH [SSN3],3.12 ± 0.12
19,QQEAKYRNNEPAGFTHK [YDL088C/ASM4],2.98 ± 0.046
20,QQENSKSGKRKPNIILD [RPC31],2.83 ± 0.086
21,QQFNLHEILSEPAIEEE [MED1],3.1 ± 0.12
22,QQGQNMSEQQWREQLRN [ROX3],2.48 ± 0.055
23,QQLDSFNQFVDYTLQDI [RPB2],2.64 ± 0.1
24,QQLLKGLSLSFSKKLDL [DSN1],3.1 ± 0.088
25,QQLLPAPQLFPYGSFHQ [DSN1],3.01 ± 0.1
26,QQLVDSEKRLDHFIHLR [SNF12],2.75 ± 0.07

row,Sequence,protein stability index
1,QQPNPLHGLTPTAKDVE [GAL11],2.98 ± 0.041
2,QQQLQQNSKEKNGLGLN [MED2],3.26 ± 0.12
3,QQQPQPQYNMNMGMNNM [PGD1],2.77 ± 0.05
4,QQQQQQQQQTSPPPQTH [SNF5],2.862 ± 0.011
5,QRDRHTLAYDRGHRIRR [PRP8],3.21 ± 0.074
6,QRESQIGAAELNENARE [SNF12],3.19 ± 0.063
7,QRGEDDLTFKLADILKA [RPO21],2.61 ± 0.1
8,QRGKMHGLKQLRDSLAD [NUT2],2.67 ± 0.062
9,QRIIKELSIRFPQYKLT [ARP7],1.67 ± 0.089
10,QRKTNGASNGDDSNGGN [BRN1],2.92 ± 0.23
11,QRMHAIHEIDERLAKVN [NNF1],2.59 ± 0.14
12,QRQLLVQQQQQQQLRNQ [SNF5],2.54 ± 0.11
13,QRVRNMRELGLIQSTEF [YOR098C/NUP1],2.03 ± 0.1
14,QSISGTLELSAQFRVPR [SWP82],2.77 ± 0.069
15,QSNEDTFLPSYMKFSNK [RRI2],3.05 ± 0.063
16,QSRVPTSLTSIKWENAF [PRP8],3.3 ± 0.11
17,QSSEDVITIKSRIRVKI [RPB7],2.41 ± 0.075
18,QSTPQPDDMVEINSVGN [ITC1],3.42 ± 0.043
19,QTDADRVKDPQWLIMLG [RIP1],3.22 ± 0.11
20,QTFNFDSFENYFNQLKP [RPN12],2.9 ± 0.064
21,QTIEMITQIVEKDFCTS [SRB8],3.08 ± 0.058
22,QTLGLESFTEELSNELS [MED1],3.1 ± 0.051
23,QTLSSHLEALQPLFSTV [PGD1],1.97 ± 0.037
24,QTRAKLLDNEIRIFRSE [RPT5],3.37 ± 0.093
25,QTVRLIKDLQRAINKVL [SIR2],2.03 ± 0.061
26,QVENMKWDFAKDIKGYG [PRE4],1.54 ± 0.082

row,Sequence,protein stability index
1,QVILPMSPNHGTFGGDG [FAS2],3.1 ± 0.057
2,QVNIRFLLHNSEIIDTN [SRB8],2.71 ± 0.057
3,QVPLQQTQAIAQQQQLS [YGR119C/NUP57],2.41 ± 0.076
4,QVPQVRSMSGQPPTNVQ [SNF5],3.03 ± 0.042
5,QVRKDLGNVIVPNILSL [NUT1],2.55 ± 0.088
6,QVYDLLKRFPKMSVTCN [BRR2],1.09 ± 0.13
7,QWLIMLGICTHLGCVPI [RIP1],1.37 ± 0.078
8,QWMVSLFNNHLNGILAD [SNF2],1.46 ± 0.11
9,QWRYLYDTQLKVSPEEL [ARP7],1.97 ± 0.042
10,QYESQAPDGSASISLPN [SWP82],2.61 ± 0.05
11,QYILQIVSFIVNCFHED [YJL039C/NUP192],1.91 ± 0.062
12,QYQLLYNLKNDILTNLE [SWI1],1.89 ± 0.037
13,QYSTRHDAPRGLFPFES [SWI3],3.17 ± 0.073
14,RADIVRNIILEARFDVL [ISW2],2.25 ± 0.071
15,RADVEDESNDIDMIADE [RPC37],2.72 ± 0.057
16,RAGMTHEDEKLIPTIFR [PRP8],3.28 ± 0.076
17,RAIYSYLSGAIPNQEVL [YDL116W/NUP84],2.58 ± 0.079
18,RAKAEAAEFRYKYGYDM [SCL1],2.91 ± 0.063
19,RAKAMKFADGFLIHSGQ [RPS3],3.03 ± 0.093
20,RALFRQLKRWYWQFNGV [RMP1],1.24 ± 0.12
21,RALSIFSPDGHIFQVEY [PRE6],2.98 ± 0.05
22,RAPKANGALDPKMGVSS [RPO31],3.11 ± 0.16
23,RAQLENEIEGKNEETPQ [RPC25],3.23 ± 0.14
24,RASLVPGTVLILLAGRF [RPL6A],1.93 ± 0.084
